Test results as given in publication PMC3950343 (Genes & Development, 2014).

Biological target: the molecule itself
Test: SEC-MALS

B1: Rad50-HK^WT (mouse Rad50 hook domain fragment, amino acids 591-773) (domain or fragment, UniProt P70388 591-773, looked up)
chain: RDRLAKLNKELASAEQNKNHINNELKKKEEQLSSYEDKLFDVCGSQDLESDLGRLKEEIEKSSKQRAMLAGATAVYSQFITQLTDENQSCCPVCQRVFQTEAELQEVISDLQSKLRLAPDKLKSTESELKKKERRRDEMLGLVPVRQSIIDLKEKEIPELRNRLQSVNRDIQRLKNDIEEQET
  stoichiometry N: 2
